Assay [1] deals with ribosomes (80S monosomes and polysomes) (S. cerevisiae (endogenous in BY4741)). Briefly: co-sedimentation; formaldehyde-crosslinked cell extracts (unstressed or H2O2-treated) on 15-50% sucrose gradients, SW41 Ti 2.5 hr at 278,000 x g, 4°C; fractions western blotted.
Assay [2] has the same target. Description: co-sedimentation; polysomal proteomics: formaldehyde-crosslinked extracts (unstressed, H2O2, 3-AT) on 15-50% sucrose gradients, fractions F1-F5 against totals by label-free MS; percent ribosome association estimated from the fraction sum to total ratio.

B1: Aat2-TAP (cytosolic aspartate aminotransferase with a C-terminal TAP tag) (enzyme)
chain: MSATLFNNIELLPPDALFGIKQRYGQDQRATKVDLGIGAYRDDNGKPWVLPSVKAAEKLIHNDSSYNHEYLGITGLPSLTSNAAKIIFGTQSDAFQEDRVISVQSLSGTGALHISAKFFSKFFPDKLVYLSKPTWANHMAIFENQGLKTATYPYWANETKSLDLNGFLNAIQKAPEGSIFVLHSCAHNPTGLDPTSEQWVQIVDAIASKNHIALFDTAYQGFATGDLDKDAYAVRLGVEKLSTVSPVFVCQSFAKNAGMYGERVGCFHLALTKQAQNKTIKPAVTSQLAKIIRSEVSNPPAYGAKIVAKLLETPELTEQWHKDMVTMSSRITKMRHALRDHLVKLGTPGNWDHIVNQCGMFSFTGLTPQMVKRLEETHAVYLVASGRASIAGLNQGNVEYVAKAIDEVVRFYTIEAKL
In the case of B1, in assay [1], the percent in ribosomal fractions came out at 10% and the percent ribosome associated (H2O2-treated extract) is 13%.

B2: Aat2 (cytosolic aspartate aminotransferase), untagged (enzyme)
chain: B1 chain
For the molecule B2, the percent ribosome associated (H2O2-treated extract) in assay [2] was 9%.

These data come from article PMC9191892.
